The text below walks through data of PMC6957492, “Assembly and substrate recognition of curli biogenesis system” (Nature Communications, 2020).

Usually stoichiometry N stands for a count of units in the complex or per binding partner. As a reminder, the Kd is the concentration at which binding is half-saturated. High values mean lower affinity, low ones higher affinity.

The subject of one data set is CsgG. Description: Pulldown assay of CsgF variants/domains with CsgG as bait. The format is binding, E. coli K12. The note with it: CsgF variants with C-terminal MBP tag. As to the method: The procedure of CsgG purification was similar to that of the CsgFG complex. […] After incubation for 30 min, the mixture was loaded into a Strep-Tactin column (IBA). […] Individual CsgG and CsgF variants were purified as input by Strep-Tactin and Ni-NTA, respectively. The samples were analyzed by 15% SDS–PAGE and stained with Coomassie blue.
CsgFGBD-MBP mutant variants were purified as soluble protein by Ni-NTA. CsgG were purified as membrane protein by Strep-Tactin and substituted by amphipole A8-35. CsgFGBD-MBP mutant variants (36 μM) and CsgG nonamer (2 μM) were mixed together at 4 °C for 2 h and then incubated with equal volume of Strep-Tactin beads at 4 °C for 1 h.
Supplementary Figure 5. Interaction mode between CsgFN and CsgG. a, Interaction of CsgFN and CsgG. […] Two adjacent subunits of CsgG are shown in magenta and cyan, respectively. b, Hydrogen bonds and electrostatic interaction between CsgFN and CsgG. Hydrogen bonds are shown as red […]
aromatic residues in CsgG. d, The hydrophobic interaction between CsgFN and CsgG. e, Pulldown assay between the CsgF(C-terminal MBP tag) mutant variants and CsgG. […] Source data are provided as a Source Data file.
(1 picture or pasted object on this page, not shown here)

Another data set relates to CsgB. Kind of data set: Pulldown assay of CsgB by CsgF domains. The format is binding, E. coli. The note with it: CsgB C-terminal MBP tag, CsgF parts N-terminal MBP tag; western blot. A general note: A western blot detects proteins with antibodies after separation by electrophoresis.
Data set [1] concerns the molecule itself. Kind of data set: cryo-EM structure; CsgFG complex co-expressed from the CsgEFG operon, purified in LDAO; single-particle cryo-EM, 3.8 Å without symmetry, 3.38 Å with C9 symmetry.
For data set [2], the target named is T1, Wild-type CsgG (expressed alone) (E. coli K12, UniProt P0AEA2 16-277).
T1 construct: also called CsgG nonamer; nonameric CsgG
T1 sequence (looked up): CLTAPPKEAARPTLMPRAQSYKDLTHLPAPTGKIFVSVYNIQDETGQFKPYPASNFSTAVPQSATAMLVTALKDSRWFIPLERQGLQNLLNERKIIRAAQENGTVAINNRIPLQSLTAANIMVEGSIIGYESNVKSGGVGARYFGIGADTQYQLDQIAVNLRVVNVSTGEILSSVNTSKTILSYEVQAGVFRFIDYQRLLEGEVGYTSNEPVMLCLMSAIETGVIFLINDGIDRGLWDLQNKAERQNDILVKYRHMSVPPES
Description: ITC; MicroCal ITC200, 25 °C; nonameric CsgG in amphipole A8-35 in the cell (2 or 10 μM), CsgFN-MBP (200 μM), CsgAN6 peptide (1 mM) or PeptideN (60 µM) in the syringe; 10 mM HEPES pH 7.5, 50 mM NaCl. Conditions: both partners purified.

Data set [3] relates to curli cell association in E. coli K-12 strain BW25113. Kind of data set: Congo red cell-association assay. The format is cell-based, E. coli K-12 BW25113. The note with it: CsgF variants, scraped YESCA plates after 48 h. The method, then:
The E. coli K-12 strain BW25113 wild type (WT) and mutants were cultured overnight in LB at 37 °C. To induce curli production, 5 μl sample was spotted on YESCA plates (10 g/L casamino acids, 1 g/L yeast extract, and 20 g/L Bacto agar) supplemented with 100 μg/ml ampicillin and 90 μg/ml Congo red. The plates were incubated at 26 °C for 48 h. […] For overexpression assay in the ΔCsgE mutant strain, 3 μM IPTG was also supplemented in the YESCA plates.
For the Congo red cell-association assay, after growing in YESCA plates for 48 h, the cells were scraped from the plates and the scraped plates were observed. The remaining plates with curli cell association appeared white, while the remaining plates without curli cell association appeared red.

Entries after “also recorded” stand apart in the source; their conditions may differ.

Description for CsgB: After incubation for 20 min, the mixture was loaded to a Strep-Tactin column (IBA). The beads were washed four times with a buffer having 25 mM Tris-HCl at pH 8.0, 150 mM NaCl, and eluted in a buffer having 25 mM Tris-HCl at pH 8.0, 150 mM NaCl, and 2.5 mM desthiobiotin. […] The samples were analyzed by 15% SDS–PAGE and detected by western blotting.

In the case of “CsgFN: N-terminal domain of CsgF (CsgFN, residues 1–36)”, the “CsgF-CsgG interaction in pulldown” value with CsgG is “CsgG can pulldown both the full-length CsgF and CsgFN”. Besides, in the data set on CsgB, the “pulldown of CsgB” value is “could not pulldown CsgB”.

B1: CsgG (from the CsgEFG operon construct with C-terminal strep-tag II) (natural protein, E. coli K12, UniProt P0AEA2 16-277, looked up)
chain: CLTAPPKEAARPTLMPRAQSYKDLTHLPAPTGKIFVSVYNIQDETGQFKPYPASNFSTAVPQSATAMLVTALKDSRWFIPLERQGLQNLLNERKIIRAAQENGTVAINNRIPLQSLTAANIMVEGSIIGYESNVKSGGVGARYFGIGADTQYQLDQIAVNLRVVNVSTGEILSSVNTSKTILSYEVQAGVFRFIDYQRLLEGEVGYTSNEPVMLCLMSAIETGVIFLINDGIDRGLWDLQNKAERQNDILVKYRHMSVPPES
notes: also called CsgG channel; CsgG subcomplex; source: E. coli BL21 (DE3), co-expressed from the CsgEFG operon; membrane fraction solubilised in DDM/LDAO, purified (Strep-Tactin, SEC); not shown: strep-tag II, C-terminal, kept
B1: the “stoichiometry N” value in data set [1] stood at 9 subunits.

B2: CsgFC: CsgF C-terminal domain (residues 37–119) (protein)
chain: YNDDFGIETPSALDNFTQAIQSQILGGLLSNINTGKPGRMVTNDYIVDIANRDGQLQLNVTDRKTGQTSTIQVSGLQNNSTDF
modifications: left off: MBP, C-terminal, kept | His tag (from the Ni-NTA purification of the input), end not stated, state not stated
Take B2: in the data set on CsgG, the “CsgF-CsgG interaction in pulldown” value is “unlikely to interact with CsgG”. The “pulldown of CsgB” value with CsgB is “full-length CsgF and CsgFC could”.

B3: CsgAN6 peptide (peptide)
peptide: GVVPQY
Take B3: the Kd in data set [2] was 23.8 µM.

B4: CsgF (from the CsgEFG operon) (natural protein, E. coli K12, UniProt P0AE98 20-138, looked up)
chain: GTMTFQFRNPNFGGNPNNGAFLLNSAQAQNSYKDPSYNDDFGIETPSALDNFTQAIQSQILGGLLSNINTGKPGRMVTNDYIVDIANRDGQLQLNVTDRKTGQTSTIQVSGLQNNSTDF
notes: also called CsgFN (residues 1-36) and CsgFC (residues 37-119) are its domains; source: E. coli BL21 (DE3), co-expressed from the CsgEFG operon, co-purified with CsgG (Strep-Tactin, SEC)
Take B4: the “stoichiometry N” value in data set [1] worked out at 9 subunits.

B5: N9A (protein)
chain: GTMTFQFRAPNFGGNPNNGAFLLNSAQAQNSYKDPSYNDDFGIETPSALDNFTQAIQSQILGGLLSNINTGKPGRMVTNDYIVDIANRDGQLQLNVTDRKTGQTSTIQVSGLQNNSTDF
modifications: left off: MBP, end not stated, kept | His tag (from the Ni-NTA purification), end not stated, state not stated
Consider B5, for which, in the data set on CsgG, the “CsgF-CsgG interaction in pulldown” value is “showed reduced interaction between CsgF and CsgG”.

B6: F12D (protein)
chain: GTMTFQFRNPNDGGNPNNGAFLLNSAQAQNSYKDPSYNDDFGIETPSALDNFTQAIQSQILGGLLSNINTGKPGRMVTNDYIVDIANRDGQLQLNVTDRKTGQTSTIQVSGLQNNSTDF
modifications: left off: MBP, end not stated, kept | His tag (from the Ni-NTA purification), end not stated, state not stated
As for B6, the “CsgF-CsgG interaction in pulldown” value in the data set on CsgG was “abolished the interaction between CsgF and CsgG”. Besides, the “Congo red cell-association phenotype” value in data set [3] is “nearly eliminated”.

B7: F21D (protein)
chain: GTMTFQFRNPNFGGNPNNGADLLNSAQAQNSYKDPSYNDDFGIETPSALDNFTQAIQSQILGGLLSNINTGKPGRMVTNDYIVDIANRDGQLQLNVTDRKTGQTSTIQVSGLQNNSTDF
modifications: left off: MBP, end not stated, kept | His tag (from the Ni-NTA purification), end not stated, state not stated
B7: the “CsgF-CsgG interaction in pulldown” value with CsgG is on record as “did not show any detectable influence on CsgF-CsgG interaction”.

B8: L22D (protein)
chain: GTMTFQFRNPNFGGNPNNGAFDLNSAQAQNSYKDPSYNDDFGIETPSALDNFTQAIQSQILGGLLSNINTGKPGRMVTNDYIVDIANRDGQLQLNVTDRKTGQTSTIQVSGLQNNSTDF
modifications: left off: MBP, end not stated, kept | His tag (from the Ni-NTA purification), end not stated, state not stated
Take B8: in the data set with CsgG, the “CsgF-CsgG interaction in pulldown” value was “showed reduced interaction between CsgF and CsgG”.

B9: F7D (protein)
chain: GTMTFQDRNPNFGGNPNNGAFLLNSAQAQNSYKDPSYNDDFGIETPSALDNFTQAIQSQILGGLLSNINTGKPGRMVTNDYIVDIANRDGQLQLNVTDRKTGQTSTIQVSGLQNNSTDF
modifications: left off: MBP, end not stated, kept | His tag (from the Ni-NTA purification), end not stated, state not stated
With B9, the “CsgF-CsgG interaction in pulldown” value with CsgG was “abolished the interaction between CsgF and CsgG; also recorded: didn’t see binding”. Also, in data set [3], the “Congo red cell-association phenotype” value is “nearly eliminated”.

B10: F5D (protein)
chain: GTMTDQFRNPNFGGNPNNGAFLLNSAQAQNSYKDPSYNDDFGIETPSALDNFTQAIQSQILGGLLSNINTGKPGRMVTNDYIVDIANRDGQLQLNVTDRKTGQTSTIQVSGLQNNSTDF
modifications: left off: MBP, end not stated, kept | His tag (from the Ni-NTA purification), end not stated, state not stated
As for B10, the “CsgF-CsgG interaction in pulldown” value with CsgG was “abolished the interaction between CsgF and CsgG”. In addition, the “Congo red cell-association phenotype” value in data set [3] is “nearly eliminated”.

B11: R8A (protein)
chain: GTMTFQFANPNFGGNPNNGAFLLNSAQAQNSYKDPSYNDDFGIETPSALDNFTQAIQSQILGGLLSNINTGKPGRMVTNDYIVDIANRDGQLQLNVTDRKTGQTSTIQVSGLQNNSTDF
modifications: left off: MBP, end not stated, kept | His tag (from the Ni-NTA purification), end not stated, state not stated
Take B11: the “CsgF-CsgG interaction in pulldown” value in the data set on CsgG is “showed reduced interaction between CsgF and CsgG”.

B12: L23D (protein)
chain: GTMTFQFRNPNFGGNPNNGAFLDNSAQAQNSYKDPSYNDDFGIETPSALDNFTQAIQSQILGGLLSNINTGKPGRMVTNDYIVDIANRDGQLQLNVTDRKTGQTSTIQVSGLQNNSTDF
modifications: left off: MBP, end not stated, kept | His tag (from the Ni-NTA purification), end not stated, state not stated
For B12, the “CsgF-CsgG interaction in pulldown” value with CsgG was “showed reduced interaction between CsgF and CsgG”.

B13: N11A (protein)
chain: GTMTFQFRNPAFGGNPNNGAFLLNSAQAQNSYKDPSYNDDFGIETPSALDNFTQAIQSQILGGLLSNINTGKPGRMVTNDYIVDIANRDGQLQLNVTDRKTGQTSTIQVSGLQNNSTDF
modifications: left off: MBP, end not stated, kept | His tag (from the Ni-NTA purification), end not stated, state not stated
As for B13, the “CsgF-CsgG interaction in pulldown” value with CsgG was “did not show any detectable influence on CsgF-CsgG interaction”.
